Source: patent US11203743B2, “Method for producing long-chain glycosylated genistein” (Jiangnan University, priority 2019, dated 2021)

Experiment: Specificity of different cyclodextrin glucosyltransferases to glycosylated genistein products (maltodextrin donor, genistein receptor, HPLC)
Format: biochemical
Details: for content of long-chain glycosylated genistein in the reaction solution / content of short-chain glycosylated genistein in the reaction solution / ratio of the molar content of long-chain glycosylated genistein to the molar content of total glycosylated genistein in the reaction solution / ratio of the molar content of short-chain glycosylated genistein to the molar content of total glycosylated genistein in the reaction solution: 40° C., pH 6.5, 120 rpm, 20-24 hours; for specificity to long-chain glycosylated genistein products in comparison with wild type: in words, from Tables 1 to 2; for increase of the yield of long-chain glycosylated genistein compared with wild-type cyclodextrin glucosyltransferase: versus wild type
Protocol: Genistein (purchased from Sigma) was dissolved in dimethyl sulfoxide (DMSO) to prepare a genistein solution with a final concentration of 7.5 g/L; maltodextrin (purchased from Shanghai Sangon Biotech Co., Ltd.) was dissolved in a PBS buffer (50 mM, pH 6.5) to prepare a maltodextrin solution with a final concentration of 40 g/L; the freeze-fried pure enzymes of the mutants A156V/L174P, A156V/L174P/166Y, A156V/L174P/A166V, A156V/L174P/A166G, A156V/L174P/A166K, A156S, A156L and L174M obtained in Example 1 were dissolved in a PBS buffer (50 mM, pH 6.5) separately to prepare a CGTase enzyme solution with a final concentration of 15 U/L; 300 μL of the genistein solution, 500 μL of the maltodextrin solution and 200 μL of the CGTase enzyme solution were taken separately, mixed in a 2 mL vial with a lid and placed in a shaker for slow shaking at 40° C. and 120 rpm for 20-24 hours to obtain a reaction solution.
The molar content of short-chain glycosylated genistein (here the short-chain glycosylated genistein was a mixture of monoglycosylated genistein, diglycosylated genistein and triglycosylated genistein) and long-chain glycosylated genistein (here the long-chain glycosylated genistein was a mixture of tetraglycosylated genistein, pentaglycosylated genistein and hexaglycosylated genistein) in the reaction solution was detected by HPLC, the ratio (%) of the molar content of short-chain glycosylated genistein and long-chain glycosylated genistein in the reaction solution to the molar content of total glycosylated genistein in the reaction solution and the content (g/L) of short-chain glycosylated genistein and long-chain glycosylated genistein in the reaction solution were calculated, and detection results were shown in Tables 1 to 2. A method for detecting the ratio (%) of the content of short-chain glycosylated genistein and long-chain glycosylated genistein in the reaction solution to the content of total glycosylated genistein in the reaction solution by HPLC included that the reaction solution was filtered through a 0.22 μm filter membrane, and an Amethyst C18-H column (4.6*250 mm, Sepax, America) was used for detection (see Table 3 for specific detection conditions). The content of long-chain glycosylated genistein=the molar content of hexaglycosylated genistein*the molecular weight of hexaglycosylated genistein+ the molar content of pentaglycosylated genistein*the molecular weight of pentaglycosylated genistein+ the molar content of tetraglycosylated genistein*the molecular weight of tetraglycosylated genistein, and the content of short-chain glycosylated genistein=the molar content of triglycosylated genistein*the molecular weight of triglycosylated genistein+ the molar content of diglycosylated genistein*the molecular weight of diglycosylated genistein+ the molar content of monoglycosylated genistein*the molecular weight of monoglycosylated genistein.

| content of long-chain glycosylated genistein in the reaction solution [g/L] | content of short-chain glycosylated genistein in the reaction solution [g/L] | ratio of the molar content of long-chain glycosylated genistein to the molar content of total glycosylated genistein in the reaction solution [%] | ratio of the molar content of short-chain glycosylated genistein to the molar content of total glycosylated genistein in the reaction solution [%] | specificity to long-chain glycosylated genistein products in comparison with wild type | increase of the yield of long-chain glycosylated genistein compared with wild-type cyclodextrin glucosyltransferase [%] | Molecule |
| --- | --- | --- | --- | --- | --- | --- |
| 5.2 | 9.7 | 25 | 75 | significantly improved | 62.5 | A156V/L174P: cyclodextrin glucosyltransferase mutant: alanine 156 into valine and leucine 174 into proline of SEQ ID NO: 1 (protein, Translated from synthetic DNA) SPDTSVDNKVNFSTDVIYQIVTDRFADGDRTNNPAGDAFSGDRSNLKLYFGGDWQGIIDKINDGYLTGMGVTALWISQPVENITSVIKYSGVNNTSYHGYWARDFKQTNDAFGDFADFQNLIDTAHAHNIKVVIDFAPNHTSPADRDNPGFAENGVLYDNGSLLGAYSNDTAGPFHHNGGTDFSTIEDGIYKNLYDLADINHNNNAMDAYFKSAIDLWLGMGVDGIRFDAVKHMPFGWQKSFVSSIYGGDHPVFTFGEWYLGADQTDGDNIKFANESGMNLLDFEYAQEVREVFRDKTETMKDLYEVLASTESQYDYINNMVTFIDNHDMDRFQVAGSGTRATEQALALTLTSRGVPAIYYGTEQYMTGDGDPNNRAMMTSFNTGTTAYKVIQALAPLRKSNPAIAYGTTTERWVNNDVLIIERKFGSSAALVAINRNSSAAYPISGLLSSLPAGTYSDVLNGLLNGNSITVGSGGAVTNFTLAAGGTAVWQYTAPETSPAIGNVGPTMGQPGNIVTIDGRGFGGTAGTVYFGTTAVTGSGIVSWEDTQIKAVIPKVAAGKTGVSVKTSSGTASNTFKSFNVLTGDQVTVRFLVNQANTNYGTNVYLVGNAAELGSWDPNKAIGPMYNQVIAKYPSWYYDVSVPAGTKLDFKFIKKGGGTVTWEGGGNHTYTTPASGVGTVTVDWQN |
| 6.8 | 9.5 | 29 | 71 | significantly improved | 112.5 | A156V/L174P/A166V: cyclodextrin glucosyltransferase mutant: A156V, L174P and alanine 166 into valine of SEQ ID NO: 1 (protein, Translated from synthetic DNA) SPDTSVDNKVNFSTDVIYQIVTDRFADGDRTNNPAGDAFSGDRSNLKLYFGGDWQGIIDKINDGYLTGMGVTALWISQPVENITSVIKYSGVNNTSYHGYWARDFKQTNDAFGDFADFQNLIDTAHAHNIKVVIDFAPNHTSPADRDNPGFAENGVLYDNGSLLGVYSNDTAGPFHHNGGTDFSTIEDGIYKNLYDLADINHNNNAMDAYFKSAIDLWLGMGVDGIRFDAVKHMPFGWQKSFVSSIYGGDHPVFTFGEWYLGADQTDGDNIKFANESGMNLLDFEYAQEVREVFRDKTETMKDLYEVLASTESQYDYINNMVTFIDNHDMDRFQVAGSGTRATEQALALTLTSRGVPAIYYGTEQYMTGDGDPNNRAMMTSFNTGTTAYKVIQALAPLRKSNPAIAYGTTTERWVNNDVLIIERKFGSSAALVAINRNSSAAYPISGLLSSLPAGTYSDVLNGLLNGNSITVGSGGAVTNFTLAAGGTAVWQYTAPETSPAIGNVGPTMGQPGNIVTIDGRGFGGTAGTVYFGTTAVTGSGIVSWEDTQIKAVIPKVAAGKTGVSVKTSSGTASNTFKSFNVLTGDQVTVRFLVNQANTNYGTNVYLVGNAAELGSWDPNKAIGPMYNQVIAKYPSWYYDVSVPAGTKLDFKFIKKGGGTVTWEGGGNHTYTTPASGVGTVTVDWQN |

More lines, now with the values behind:

| Molecule | content of long-chain glycosylated genistein in the reaction solution [g/L] | content of short-chain glycosylated genistein in the reaction solution [g/L] | ratio of the molar content of long-chain glycosylated genistein to the molar content of total glycosylated genistein in the reaction solution [%] | ratio of the molar content of short-chain glycosylated genistein to the molar content of total glycosylated genistein in the reaction solution [%] | specificity to long-chain glycosylated genistein products in comparison with wild type | increase of the yield of long-chain glycosylated genistein compared with wild-type cyclodextrin glucosyltransferase [%] |
| --- | --- | --- | --- | --- | --- | --- |
| A156V/L174P/A166G: cyclodextrin glucosyltransferase mutant: A156V, L174P and alanine 166 into glycine of SEQ ID NO: 1 (protein, Translated from synthetic DNA) SPDTSVDNKVNFSTDVIYQIVTDRFADGDRTNNPAGDAFSGDRSNLKLYFGGDWQGIIDKINDGYLTGMGVTALWISQPVENITSVIKYSGVNNTSYHGYWARDFKQTNDAFGDFADFQNLIDTAHAHNIKVVIDFAPNHTSPADRDNPGFAENGVLYDNGSLLGGYSNDTAGPFHHNGGTDFSTIEDGIYKNLYDLADINHNNNAMDAYFKSAIDLWLGMGVDGIRFDAVKHMPFGWQKSFVSSIYGGDHPVFTFGEWYLGADQTDGDNIKFANESGMNLLDFEYAQEVREVFRDKTETMKDLYEVLASTESQYDYINNMVTFIDNHDMDRFQVAGSGTRATEQALALTLTSRGVPAIYYGTEQYMTGDGDPNNRAMMTSFNTGTTAYKVIQALAPLRKSNPAIAYGTTTERWVNNDVLIIERKFGSSAALVAINRNSSAAYPISGLLSSLPAGTYSDVLNGLLNGNSITVGSGGAVTNFTLAAGGTAVWQYTAPETSPAIGNVGPTMGQPGNIVTIDGRGFGGTAGTVYFGTTAVTGSGIVSWEDTQIKAVIPKVAAGKTGVSVKTSSGTASNTFKSFNVLTGDQVTVRFLVNQANTNYGTNVYLVGNAAELGSWDPNKAIGPMYNQVIAKYPSWYYDVSVPAGTKLDFKFIKKGGGTVTWEGGGNHTYTTPASGVGTVTVDWQN | 4.4 | 10.9 | 20 | 80 | significantly improved | – |
| A156V/L174P/A166K: cyclodextrin glucosyltransferase mutant: A156V, L174P and alanine 166 into lysine of SEQ ID NO: 1 (protein, Translated from synthetic DNA) SPDTSVDNKVNFSTDVIYQIVTDRFADGDRTNNPAGDAFSGDRSNLKLYFGGDWQGIIDKINDGYLTGMGVTALWISQPVENITSVIKYSGVNNTSYHGYWARDFKQTNDAFGDFADFQNLIDTAHAHNIKVVIDFAPNHTSPADRDNPGFAENGVLYDNGSLLGKYSNDTAGPFHHNGGTDFSTIEDGIYKNLYDLADINHNNNAMDAYFKSAIDLWLGMGVDGIRFDAVKHMPFGWQKSFVSSIYGGDHPVFTFGEWYLGADQTDGDNIKFANESGMNLLDFEYAQEVREVFRDKTETMKDLYEVLASTESQYDYINNMVTFIDNHDMDRFQVAGSGTRATEQALALTLTSRGVPAIYYGTEQYMTGDGDPNNRAMMTSFNTGTTAYKVIQALAPLRKSNPAIAYGTTTERWVNNDVLIIERKFGSSAALVAINRNSSAAYPISGLLSSLPAGTYSDVLNGLLNGNSITVGSGGAVTNFTLAAGGTAVWQYTAPETSPAIGNVGPTMGQPGNIVTIDGRGFGGTAGTVYFGTTAVTGSGIVSWEDTQIKAVIPKVAAGKTGVSVKTSSGTASNTFKSFNVLTGDQVTVRFLVNQANTNYGTNVYLVGNAAELGSWDPNKAIGPMYNQVIAKYPSWYYDVSVPAGTKLDFKFIKKGGGTVTWEGGGNHTYTTPASGVGTVTVDWQN | 5.1 | 10.1 | 24 | 76 | significantly improved | 59.4 |
